Source: the supplement of paper PMC10065799, “High-throughput profiling of sequence recognition by tyrosine kinases and SH2 domains using bacterial peptide display” (eLife, 2023)

Columns and labels:
[1] = biological target: Fes (UniProt P07332); experiment: phosphorylation enrichment, bacterial display (enrichment ratio); higher = better substrate or ligand; peptides without Tyr show the background
[2] = biological target: MERTK (UniProt Q12866); experiment: as above
[3] = biological target: Hck (UniProt P08631); experiment: as above
Sequence of Hck (P08631 whole entry, looked up): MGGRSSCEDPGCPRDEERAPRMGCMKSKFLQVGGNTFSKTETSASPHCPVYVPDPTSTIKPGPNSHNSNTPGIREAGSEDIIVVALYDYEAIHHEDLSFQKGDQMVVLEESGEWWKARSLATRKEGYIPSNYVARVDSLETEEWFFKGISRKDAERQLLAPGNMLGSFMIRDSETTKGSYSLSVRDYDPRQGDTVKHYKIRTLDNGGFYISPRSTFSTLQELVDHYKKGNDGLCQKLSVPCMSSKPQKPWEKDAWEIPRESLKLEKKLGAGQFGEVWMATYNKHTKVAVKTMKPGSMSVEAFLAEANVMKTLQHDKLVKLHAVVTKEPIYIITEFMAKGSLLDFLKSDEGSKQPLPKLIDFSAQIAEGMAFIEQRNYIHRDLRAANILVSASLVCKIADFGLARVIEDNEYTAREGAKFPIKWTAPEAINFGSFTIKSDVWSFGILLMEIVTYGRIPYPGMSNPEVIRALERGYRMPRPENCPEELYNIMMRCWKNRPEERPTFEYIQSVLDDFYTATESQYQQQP

[4] = biological target: FGFR1 (UniProt P11362); experiment: as above
Sequence of FGFR1 (P11362 whole entry, looked up): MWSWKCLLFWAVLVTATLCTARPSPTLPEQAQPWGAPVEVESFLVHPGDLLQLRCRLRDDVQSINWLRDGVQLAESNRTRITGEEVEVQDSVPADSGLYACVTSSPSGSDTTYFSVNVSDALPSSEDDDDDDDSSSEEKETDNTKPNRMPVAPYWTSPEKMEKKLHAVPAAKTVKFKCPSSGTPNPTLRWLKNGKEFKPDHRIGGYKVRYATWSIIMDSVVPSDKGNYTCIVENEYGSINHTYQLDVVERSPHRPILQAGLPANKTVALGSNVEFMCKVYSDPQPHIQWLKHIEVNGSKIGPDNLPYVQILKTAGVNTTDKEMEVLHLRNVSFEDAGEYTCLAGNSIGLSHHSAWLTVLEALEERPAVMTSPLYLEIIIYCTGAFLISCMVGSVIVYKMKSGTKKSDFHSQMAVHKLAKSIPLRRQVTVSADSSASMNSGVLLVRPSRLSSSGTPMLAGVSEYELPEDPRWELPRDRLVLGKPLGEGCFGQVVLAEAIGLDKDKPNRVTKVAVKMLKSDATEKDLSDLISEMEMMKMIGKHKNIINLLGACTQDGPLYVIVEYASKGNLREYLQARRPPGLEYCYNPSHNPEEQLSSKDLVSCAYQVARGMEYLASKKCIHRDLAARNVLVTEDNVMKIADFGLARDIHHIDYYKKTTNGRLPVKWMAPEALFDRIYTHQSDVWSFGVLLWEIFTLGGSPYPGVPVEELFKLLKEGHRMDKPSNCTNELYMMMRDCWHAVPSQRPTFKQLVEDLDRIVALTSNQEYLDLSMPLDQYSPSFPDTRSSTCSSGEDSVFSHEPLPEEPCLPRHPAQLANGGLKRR

[5] = biological target: Fyn (UniProt P06241); experiment: as above
Sequence of Fyn (P06241 whole entry, looked up): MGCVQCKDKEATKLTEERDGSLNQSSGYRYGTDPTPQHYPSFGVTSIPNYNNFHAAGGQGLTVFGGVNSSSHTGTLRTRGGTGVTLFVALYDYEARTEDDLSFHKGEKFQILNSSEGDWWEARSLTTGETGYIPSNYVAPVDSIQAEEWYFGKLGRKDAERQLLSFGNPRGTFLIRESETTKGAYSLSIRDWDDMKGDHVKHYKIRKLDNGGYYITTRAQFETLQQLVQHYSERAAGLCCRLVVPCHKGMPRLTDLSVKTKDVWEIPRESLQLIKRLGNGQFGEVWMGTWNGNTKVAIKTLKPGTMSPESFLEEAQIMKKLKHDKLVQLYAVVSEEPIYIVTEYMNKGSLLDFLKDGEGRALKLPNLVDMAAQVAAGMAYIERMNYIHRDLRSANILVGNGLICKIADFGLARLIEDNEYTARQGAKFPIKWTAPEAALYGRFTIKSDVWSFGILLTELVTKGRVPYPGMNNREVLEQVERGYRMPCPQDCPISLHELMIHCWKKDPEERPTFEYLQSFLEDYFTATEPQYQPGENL

[6] = biological target: EPHB1 (UniProt P54762); experiment: as above
[7] = test system: c-Src; experiment: as above
[8] = test system: Fer (mouse); experiment: as above
[9] = biological target: Jak2 (UniProt O60674); experiment: as above
Sequence of Jak2 (O60674 whole entry, looked up): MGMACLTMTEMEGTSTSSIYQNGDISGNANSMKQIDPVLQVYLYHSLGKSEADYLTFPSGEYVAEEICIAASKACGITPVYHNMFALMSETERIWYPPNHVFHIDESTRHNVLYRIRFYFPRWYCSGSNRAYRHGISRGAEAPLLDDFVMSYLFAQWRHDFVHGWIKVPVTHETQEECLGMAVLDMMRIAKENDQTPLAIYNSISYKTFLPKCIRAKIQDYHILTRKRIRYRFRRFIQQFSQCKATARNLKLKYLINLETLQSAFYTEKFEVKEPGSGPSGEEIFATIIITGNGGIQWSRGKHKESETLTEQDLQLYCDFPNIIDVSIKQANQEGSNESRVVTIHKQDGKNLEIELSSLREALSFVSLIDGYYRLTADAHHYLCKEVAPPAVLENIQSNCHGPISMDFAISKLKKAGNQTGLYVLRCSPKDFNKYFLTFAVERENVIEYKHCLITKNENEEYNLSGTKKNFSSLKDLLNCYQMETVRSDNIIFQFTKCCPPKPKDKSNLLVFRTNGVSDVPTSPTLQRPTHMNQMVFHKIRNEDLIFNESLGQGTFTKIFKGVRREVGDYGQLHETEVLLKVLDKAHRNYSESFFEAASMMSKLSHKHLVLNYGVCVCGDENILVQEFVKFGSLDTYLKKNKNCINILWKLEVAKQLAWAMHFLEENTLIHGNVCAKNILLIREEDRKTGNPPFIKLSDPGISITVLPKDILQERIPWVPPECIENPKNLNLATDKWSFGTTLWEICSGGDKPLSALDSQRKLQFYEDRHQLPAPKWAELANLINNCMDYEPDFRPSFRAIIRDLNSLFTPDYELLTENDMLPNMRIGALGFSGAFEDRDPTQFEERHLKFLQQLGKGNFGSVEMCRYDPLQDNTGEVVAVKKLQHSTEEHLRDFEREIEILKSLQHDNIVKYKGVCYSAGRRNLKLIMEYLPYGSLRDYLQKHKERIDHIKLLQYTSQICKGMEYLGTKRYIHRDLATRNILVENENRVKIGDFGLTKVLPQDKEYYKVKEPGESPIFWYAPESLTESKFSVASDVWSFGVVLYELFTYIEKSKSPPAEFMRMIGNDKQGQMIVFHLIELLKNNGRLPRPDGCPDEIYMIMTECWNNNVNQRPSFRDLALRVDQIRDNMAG

[10] = test system: AncSZ; experiment: as above
[11] = biological target: EPHB2 (UniProt P29323); experiment: as above
[12] = biological target: FGFR3 (UniProt P22607); experiment: as above
Sequence of FGFR3 (P22607 whole entry, looked up): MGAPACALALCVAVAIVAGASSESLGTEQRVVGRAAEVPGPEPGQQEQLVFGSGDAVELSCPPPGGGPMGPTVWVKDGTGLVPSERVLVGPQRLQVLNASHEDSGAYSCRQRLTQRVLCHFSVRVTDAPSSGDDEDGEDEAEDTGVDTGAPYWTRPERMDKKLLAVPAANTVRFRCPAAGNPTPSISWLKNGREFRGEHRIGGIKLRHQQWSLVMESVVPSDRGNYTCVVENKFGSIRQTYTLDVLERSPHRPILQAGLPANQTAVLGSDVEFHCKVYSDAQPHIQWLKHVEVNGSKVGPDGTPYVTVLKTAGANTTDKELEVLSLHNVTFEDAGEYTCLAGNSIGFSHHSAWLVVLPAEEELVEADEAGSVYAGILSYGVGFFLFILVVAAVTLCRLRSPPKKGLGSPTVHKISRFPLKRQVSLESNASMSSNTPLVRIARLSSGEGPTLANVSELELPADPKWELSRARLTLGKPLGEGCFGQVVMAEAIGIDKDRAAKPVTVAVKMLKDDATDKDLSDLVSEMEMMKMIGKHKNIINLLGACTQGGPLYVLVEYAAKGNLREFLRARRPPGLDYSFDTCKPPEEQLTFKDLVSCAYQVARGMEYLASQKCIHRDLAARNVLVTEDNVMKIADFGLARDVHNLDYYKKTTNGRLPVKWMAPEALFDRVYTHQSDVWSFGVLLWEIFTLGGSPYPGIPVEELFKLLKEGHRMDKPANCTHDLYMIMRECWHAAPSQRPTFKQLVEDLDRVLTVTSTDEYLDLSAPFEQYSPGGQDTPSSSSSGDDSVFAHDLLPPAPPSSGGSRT

[13] = test system: c-Abl (mouse); experiment: as above
[14] = biological target: SHP2-C SH2; experiment: SH2 binding enrichment of the phosphorylated peptide, bacterial display (enrichment ratio); higher = better substrate or ligand; peptides without Tyr show the background
[15] = biological target: Grb2 SH2 (UniProt P62993); experiment: as above
[16] = biological target: c-Src SH2; experiment: as above
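For SH2 binding enrichment of the phosphorylated peptide, bacterial display in this document: peptide library displayed on the E. coli surface as eCPX fusions, selected cells deep-sequenced, score is each peptide's frequency after selection divided by its frequency in the input.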
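For phosphorylation enrichment, bacterial display in this document: 11-residue human phosphosite peptides and single-mutation variants displayed on the E. coli surface, counted by deep sequencing, each peptide's frequency after selection divided by its frequency in the unselected input library; frequency after pTyr selection over input frequency; kinase dosed for 20-30% of maximal phosphorylation in three min.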

Sequence of Fes (P07332 whole entry, looked up): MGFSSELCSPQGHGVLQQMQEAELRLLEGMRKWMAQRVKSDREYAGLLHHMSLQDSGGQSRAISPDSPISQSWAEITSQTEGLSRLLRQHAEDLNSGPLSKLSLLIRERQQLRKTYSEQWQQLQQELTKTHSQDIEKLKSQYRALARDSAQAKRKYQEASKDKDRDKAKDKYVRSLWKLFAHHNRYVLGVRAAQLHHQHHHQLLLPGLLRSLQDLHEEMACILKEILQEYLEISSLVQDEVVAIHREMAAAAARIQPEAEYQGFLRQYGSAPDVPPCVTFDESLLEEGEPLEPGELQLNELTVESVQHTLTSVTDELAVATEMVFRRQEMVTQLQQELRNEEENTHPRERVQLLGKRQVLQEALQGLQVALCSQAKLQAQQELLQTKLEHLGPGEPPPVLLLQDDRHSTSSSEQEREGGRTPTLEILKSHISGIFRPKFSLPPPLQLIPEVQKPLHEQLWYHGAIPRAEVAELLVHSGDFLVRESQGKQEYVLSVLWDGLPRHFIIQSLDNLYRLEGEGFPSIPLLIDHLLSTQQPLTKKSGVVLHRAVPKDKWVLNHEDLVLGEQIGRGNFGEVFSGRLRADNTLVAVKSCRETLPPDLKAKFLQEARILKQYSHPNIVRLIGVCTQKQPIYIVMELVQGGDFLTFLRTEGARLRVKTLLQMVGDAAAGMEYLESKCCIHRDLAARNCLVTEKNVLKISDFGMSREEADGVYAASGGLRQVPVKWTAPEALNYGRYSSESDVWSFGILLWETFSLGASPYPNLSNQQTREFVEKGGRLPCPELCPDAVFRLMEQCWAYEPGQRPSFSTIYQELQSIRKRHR

Row | SH2 binding enrichment [14] | SH2 binding enrichment [15] | SH2 binding enrichment [16] | Sequence | phosphorylation enrichment [1] | phosphorylation enrichment [2] | phosphorylation enrichment [3] | phosphorylation enrichment [4] | phosphorylation enrichment [5] | phosphorylation enrichment [6] | phosphorylation enrichment [7] | phosphorylation enrichment [8] | phosphorylation enrichment [9] | phosphorylation enrichment [10] | phosphorylation enrichment [11] | phosphorylation enrichment [12] | phosphorylation enrichment [13]
1 | 0.665 | 0.962 | 0.553 | MSSHHCDYKKY [ZNF445_Y428_Y428C] | 0.661 | 0.432 | 0.372 | 0.965 | 0.472 | 0.366 | 0.452 | 0.388 | 0.475 | 0.633 | 0.385 | 0.437 | 0.517
2 | 0.745 | 0.787 | 0.67 | NDHHFYLEGTL [ALDOB_Y223_V222F] | 1.19 | 0.409 | 0.43 | 0.489 | 0.398 | 0.497 | 0.392 | 0.498 | 0.964 | 0.939 | 0.547 | 0.696 | 0.646
3 | 0.812 | 0.952 | 0.529 | LKGQVYILGGE [ASS1_Y359_R363G] | 1.93 | 1.05 | 0.824 | 1.06 | 0.995 | 1.13 | 1.13 | 1.02 | 1.62 | 1.33 | 1.07 | 1.28 | 1.32
4 | 0.299 | 0.748 | 0.403 | ADRNHYRRYPR [YBX1_Y145] | 0.644 | 0.48 | 0.55 | 0.527 | 0.544 | 0.424 | 0.515 | 0.46 | 0.585 | 0.613 | 0.425 | 0.465 | 0.717
5 | 0.748 | 1 | 0.606 | NDDDVYRSLEE [VAV2_Y142] | 1.23 | 0.524 | 0.665 | 0.608 | 0.53 | 0.6 | 0.584 | 0.526 | 1.24 | 1.19 | 0.722 | 0.793 | 0.898
6 | 6.44 | 0.986 | 2.57 | SLIDGYYRLTA [JAK2_Y372] | 0.926 | 0.436 | 0.475 | 2.49 | 0.467 | 0.457 | 0.451 | 0.427 | 7.08 | 0.92 | 0.495 | 1.69 | 0.522
7 | 0.461 | 0.67 | 0.453 | DFEGLYQEGGG [TMEM159_Y159_E154D] | 1.17 | 0.453 | 1.22 | 0.761 | 0.874 | 0.746 | 0.923 | 0.64 | 0.88 | 1.23 | 0.791 | 0.817 | 0.569
8 | 0.707 | 0.728 | 0.508 | AHPGEYGAEAL [HBA1_Y25_A22P] | 0.768 | 0.443 | 0.486 | 0.453 | 0.488 | 0.516 | 0.408 | 0.425 | 0.563 | 0.801 | 0.51 | 0.559 | 0.634
9 | 0.735 | 0.623 | 0.45 | GGQVFYNSEFG [FLT4_Y1333_YF] | 1.11 | 0.546 | 0.532 | 0.551 | 0.479 | 0.619 | 0.838 | 0.53 | 1.25 | 1.09 | 0.617 | 0.766 | 0.884

The remaining lines, values behind:

Row | Sequence | SH2 binding enrichment [14] | SH2 binding enrichment [15] | SH2 binding enrichment [16] | phosphorylation enrichment [1] | phosphorylation enrichment [2] | phosphorylation enrichment [3] | phosphorylation enrichment [4] | phosphorylation enrichment [5] | phosphorylation enrichment [6] | phosphorylation enrichment [7] | phosphorylation enrichment [8] | phosphorylation enrichment [9] | phosphorylation enrichment [10] | phosphorylation enrichment [11] | phosphorylation enrichment [12] | phosphorylation enrichment [13]
10 | ILNANCMAKRL [GLDC_Y839_Y839C] | 0.727 | 0.802 | 0.534 | 0.628 | 0.42 | 0.391 | 0.477 | 0.351 | 0.306 | 0.378 | 0.342 | 0.611 | 0.612 | 0.439 | 0.403 | 0.498
11 | VTRANYFIRDE [GNAS_Y339_K338N] | 0.8 | 0.984 | 0.434 | 0.736 | 0.45 | 0.388 | 0.412 | 0.474 | 0.541 | 0.494 | 0.45 | 0.845 | 0.705 | 0.449 | 0.621 | 0.712
12 | LKKLEYLNLPL [LRRC6_Y70_A74P] | 1.4 | 10.3 | 0.69 | 0.741 | 0.423 | 0.518 | 1.26 | 0.364 | 0.531 | 0.374 | 0.47 | 0.694 | 0.818 | 0.441 | 1.12 | 0.622
13 | AFPVSYSSSGA [RET_Y687] | 0.65 | 0.767 | 0.506 | 0.541 | 0.454 | 0.303 | 0.407 | 0.344 | 0.455 | 0.477 | 0.392 | 0.52 | 0.511 | 0.314 | 0.406 | 0.53
14 | MCDSHYLESRF [CLK1_Y56_S61F] | 0.854 | 0.905 | 0.66 | 0.867 | 0.504 | 0.522 | 0.509 | 0.472 | 0.447 | 0.443 | 0.44 | 0.793 | 0.78 | 0.568 | 0.603 | 0.608
15 | FGCGMYSHLQG [LGR4_Y848_D844G_YF] | 0.731 | 0.875 | 1.1 | 1.09 | 3.76 | 1.71 | 0.795 | 0.713 | 0.879 | 2.53 | 0.745 | 1.06 | 1.1 | 0.744 | 0.916 | 1.04
16 | SKEPFYVHCIK [MYO1D_Y586_R588H_YF] | 0.898 | 0.981 | 0.574 | 1.07 | 0.433 | 0.528 | 0.484 | 0.44 | 0.614 | 0.418 | 0.467 | 0.864 | 1.08 | 0.577 | 0.682 | 0.631
